Measured values: patent publication EP4707292A2

Columns and labels:
[1] = target: Adeno-associated virus 8 (AAV8) virion (adeno-associated virus 8); assay: co-IP/LC-MS/MS, AAV8 + human serum vs PBS control
[2] = target: Adeno-associated virus 9 (AAV9) virion (adeno-associated virus 9); assay: co-IP with ADK9/LC-MS/MS, AAV9 + human serum vs control
[3] = target: Adeno-associated virus 2 (AAV2) virion (adeno-associated virus 2); assay: cell-based or functional assay
[4] = target: Adeno-associated virus 8 (AAV8) virion (adeno-associated virus 8); assay: cell-based or functional assay
[5] = target: Haploid virus AAV2/8 1:1 (adeno-associated virus 2; adeno-associated virus 8); assay: cell-based or functional assay
[6] = target: Haploid virus AAV2/8 1:3 (adeno-associated virus 2; adeno-associated virus 8); assay: cell-based or functional assay
[7] = target: Haploid virus AAV2/8 3:1 (adeno-associated virus 2; adeno-associated virus 8); assay: cell-based or functional assay

Sequence of Fibronectin, P02751 32-2477 (P02751 32-2477 limits assumed): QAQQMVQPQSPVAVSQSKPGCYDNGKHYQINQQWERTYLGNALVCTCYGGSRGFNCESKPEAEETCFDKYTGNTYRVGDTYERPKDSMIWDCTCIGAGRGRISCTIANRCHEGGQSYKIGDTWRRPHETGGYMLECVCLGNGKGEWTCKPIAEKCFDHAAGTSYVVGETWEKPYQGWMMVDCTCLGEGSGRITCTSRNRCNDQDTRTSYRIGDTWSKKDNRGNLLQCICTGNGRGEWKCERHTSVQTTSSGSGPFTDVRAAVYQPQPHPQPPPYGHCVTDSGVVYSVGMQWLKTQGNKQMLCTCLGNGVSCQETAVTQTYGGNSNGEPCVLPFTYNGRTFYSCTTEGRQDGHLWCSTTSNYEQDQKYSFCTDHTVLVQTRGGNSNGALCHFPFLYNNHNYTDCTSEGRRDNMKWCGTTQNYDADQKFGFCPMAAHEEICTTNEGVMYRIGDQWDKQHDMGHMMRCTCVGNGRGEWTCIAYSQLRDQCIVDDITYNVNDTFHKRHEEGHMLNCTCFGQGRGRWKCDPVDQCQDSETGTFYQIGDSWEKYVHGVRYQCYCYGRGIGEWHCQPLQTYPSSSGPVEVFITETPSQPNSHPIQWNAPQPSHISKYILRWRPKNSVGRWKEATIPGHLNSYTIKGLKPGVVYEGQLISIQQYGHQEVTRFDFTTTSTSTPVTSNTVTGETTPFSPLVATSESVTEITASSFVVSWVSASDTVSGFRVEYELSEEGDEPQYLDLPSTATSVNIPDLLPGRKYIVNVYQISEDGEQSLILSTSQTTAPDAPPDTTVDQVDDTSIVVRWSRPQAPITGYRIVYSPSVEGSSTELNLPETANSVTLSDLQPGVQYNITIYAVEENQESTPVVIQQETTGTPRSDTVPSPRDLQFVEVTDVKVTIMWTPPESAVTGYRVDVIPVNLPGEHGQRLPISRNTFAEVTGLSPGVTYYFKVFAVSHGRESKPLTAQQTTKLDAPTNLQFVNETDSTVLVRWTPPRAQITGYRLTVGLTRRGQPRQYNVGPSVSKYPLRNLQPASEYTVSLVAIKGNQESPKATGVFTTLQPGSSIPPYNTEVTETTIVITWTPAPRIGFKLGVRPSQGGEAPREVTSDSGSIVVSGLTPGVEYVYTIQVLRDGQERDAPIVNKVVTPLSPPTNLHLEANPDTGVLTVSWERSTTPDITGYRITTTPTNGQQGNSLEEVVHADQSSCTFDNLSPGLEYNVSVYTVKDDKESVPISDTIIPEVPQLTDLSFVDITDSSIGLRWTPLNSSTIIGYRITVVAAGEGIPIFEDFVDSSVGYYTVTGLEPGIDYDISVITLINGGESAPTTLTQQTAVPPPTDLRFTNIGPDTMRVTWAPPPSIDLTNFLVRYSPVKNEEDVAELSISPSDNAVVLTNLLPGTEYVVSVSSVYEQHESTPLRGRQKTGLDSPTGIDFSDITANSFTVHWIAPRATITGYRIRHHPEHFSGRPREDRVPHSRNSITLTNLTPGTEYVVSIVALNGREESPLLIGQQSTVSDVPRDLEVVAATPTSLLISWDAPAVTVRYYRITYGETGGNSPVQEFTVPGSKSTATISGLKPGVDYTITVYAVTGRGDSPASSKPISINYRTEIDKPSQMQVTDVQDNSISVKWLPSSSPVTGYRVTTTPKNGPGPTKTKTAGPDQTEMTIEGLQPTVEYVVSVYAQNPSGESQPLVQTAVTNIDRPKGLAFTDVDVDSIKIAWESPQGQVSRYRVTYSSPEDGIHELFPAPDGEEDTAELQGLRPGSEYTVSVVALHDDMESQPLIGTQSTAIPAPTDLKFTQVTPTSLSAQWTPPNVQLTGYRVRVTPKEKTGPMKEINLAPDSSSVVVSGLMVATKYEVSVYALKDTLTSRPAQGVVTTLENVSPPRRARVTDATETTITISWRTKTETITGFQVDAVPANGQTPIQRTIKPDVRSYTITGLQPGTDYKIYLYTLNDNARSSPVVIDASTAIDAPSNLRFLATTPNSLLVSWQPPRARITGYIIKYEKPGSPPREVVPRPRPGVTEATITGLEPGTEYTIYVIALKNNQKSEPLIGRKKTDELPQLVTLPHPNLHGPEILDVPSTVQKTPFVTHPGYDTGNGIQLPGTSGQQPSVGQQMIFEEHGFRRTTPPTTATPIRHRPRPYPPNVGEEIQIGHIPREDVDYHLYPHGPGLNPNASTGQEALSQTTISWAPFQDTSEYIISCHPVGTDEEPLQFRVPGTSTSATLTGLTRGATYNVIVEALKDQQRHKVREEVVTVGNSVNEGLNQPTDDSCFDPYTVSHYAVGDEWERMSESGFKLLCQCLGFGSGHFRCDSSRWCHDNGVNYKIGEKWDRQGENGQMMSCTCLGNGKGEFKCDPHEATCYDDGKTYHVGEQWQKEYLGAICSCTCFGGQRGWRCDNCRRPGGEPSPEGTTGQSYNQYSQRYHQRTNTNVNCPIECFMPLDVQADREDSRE
Sequence of Ig kappa chain V-I region EU (P01602 23-117 limits assumed): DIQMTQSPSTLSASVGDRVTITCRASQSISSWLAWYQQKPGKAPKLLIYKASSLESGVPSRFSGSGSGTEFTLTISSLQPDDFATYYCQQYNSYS

| Substance | fold change [1] | fold change [2] | further results |
| --- | --- | --- | --- |
| Alpha-2-HS-glycoprotein (from UniProt C9JV77 19-301; C9JV77 342-368) | 3.17 fold | 3.17 fold | – |
| Complement C4-A (from UniProt P0C0L4 20-1744) | 2.42 fold | 2.42 fold | – |
| Fibrinogen gamma chain (Fragment) (from UniProt C9JU00 1-123) | 0.417 fold | 0.417 fold | Fold increase [2]: 8.36 fold |
| Fibronectin, P02751 32-2477 | 2.5 fold | 2.5 fold | Fold increase [2]: 5.41 fold |
| Ig kappa chain V-I region EU (from UniProt P01602 23-117) | 3.83 fold | 3.83 fold | – |
| Ig kappa chain V-III region SIE (from UniProt P01619 21-116) | 2.79 fold | 2.79 fold | – |
| Ig lambda-2 chain C regions (from UniProt P0DOY2 1-106) | 1.5 fold | 1.5 fold | – |
| Monoclonal antibody A20 | – | – | A20 neutralizing antibody titer (the dilution at first time inhibits AAV transduction over 50%) (reciprocal dilution) [3]: 640; Neutralization antibody titer (reciprocal dilution) [3]: 512; Neutralization antibody titer (reciprocal dilution) [4]: < 2; Neutralization antibody titer (reciprocal dilution) [5]: 32; Neutralization antibody titer (reciprocal dilution) [6]: < 2; Neutralization antibody titer (reciprocal dilution) [7]: 2048 |
| Monoclonal antibody ADK8 | – | – | Neutralization antibody titer (reciprocal dilution) [3]: < 2; Neutralization antibody titer (reciprocal dilution) [4]: 1024; Neutralization antibody titer (reciprocal dilution) [5]: 512; Neutralization antibody titer (reciprocal dilution) [6]: 1024; Neutralization antibody titer (reciprocal dilution) [7]: 512 |
| Platelet factor 4 variant (from UniProt P10720 31-104) | 0.938 fold | 0.938 fold | Fold increase [2]: 1.47 fold |
| Transthyretin (from UniProt P02766 21-147) | 5.55 fold | 5.55 fold | – |
